Test results: the RNAGym collection of RNA variant scans (doi:10.7554/elife.80360)

B1: Twister Ribozyme (parent)
chain: AACACUGCCAAUGCCGGUCCCAAGCCCGGAUAAAAGUGGAGGGGGCGG

Variants of: B1
Assay: self-cleavage, relative activity (ratio to wild type); higher = more cleavage; co-transcriptional

Variant | self-cleavage
AACACUGCCAAUGCCGGUCCCAAGCCCGGAUAAAUGUGGAGCGGGCGG [A35U G42C] | 0.539
AACACUGCCAAUGCCGGCCCCAAGCCCUGAUAAAAGUGGAGGGGGCGG [U18C G28U] | 0.156
AACACUGCCAAGGCUGGUCCCAAGCCCGGAUAAAAGUGGAGGGGGCGG [U12G C15U] | 0.649
AACACUGCCAAUGCGGGUCCCACGCCCGGAUAAAAGUGGAGGGGGCGG [C15G A23C] | 0.137
AACACUCCCAAUGCUGGUCCCAAGCCCGGAUAAAAGUGGAGGGGGCGG [G7C C15U] | 0.0844
ACCACUGCCAAUGCCGGUCCCAAGCCCGGAUAAAAAUGGAGGGGGCGG [A2C G36A] | 0.0575
AACACUGCCAAUGCCGGACCCAAGCCCGGAUAAAAGUGGAGGGGGGGG [U18A C46G] | 0.475
AACACUGCCAAUGCCGCUCCCAAGCCCGGAUAAAAGUCGAGGGGGCGG [G17C G38C] | 0.054
AACACUGCCAAUGCCGGUCCCAGGCCCGGAUAAAAGUGGAAGGGGCGG [A23G G41A] | 0.15
AACACUGCCAAUGCCGGUACCAAGCCCGGAUAAAAGUGGAGUGGGCGG [C19A G42U] | 0.103
AACACUGCCAAUGCCGGUCCCAAGCCCGGAUAAAAGUGAAGGGCGCGG [G39A G44C] | 0.231
AACACUGCCAAUGCCGGUCCCAAGGCCGGAUAAAAUUGGAGGGGGCGG [C25G G36U] | 0.103
AACACUGCAAAUGCCGGUCCCAAGCCCGGAUAAAAGUGGUGGGGGCGG [C9A A40U] | 0.119
AACACUGCCAAGACCGGUCCCAAGCCCGGAUAAAAGUGGAGGGGGCGG [U12G G13A] | 1.14
AACACUGCCAAUGCCGGUCCCAAGCCCAGAUAAAUGUGGAGGGGGCGG [G28A A35U] | 0.847
AACACUGCCAAUGCCGGUCCCAAGCCCAGAUAAACGUGGAGGGGGCGG [G28A A35C] | 0.793
AACACUGCCAAUGCCGGUCCCAAGCCCGGAUAAAUGUGGUGGGGGCGG [A35U A40U] | 0.253
AACACUGCCAAUGCCGGUCCCAAGCCUGGAUAAAAGUGGAUGGGGCGG [C27U G41U] | 0.345
AACACUGCCAAUGCCGGUCCCAAGCGCGGAUAAAAGUGGAGGCGGCGG [C26G G43C] | 0.141
UACACUGCCAAUGCCGGUCCCAAGCGCGGAUAAAAGUGGAGGGGGCGG [A1U C26G] | 0.0605
AACACUGCCAAUGCCGGUCUCAAGCCCGGAUAAAAGUGGAGGGGGCGA [C20U G48A] | 0.907
AAUACUGCCAAUGCCGGUCCCAAGCCCGGAUAAAACUGGAGGGGGCGG [C3U G36C] | 0.0744
AACACUGCCAAAGACGGUCCCAAGCCCGGAUAAAAGUGGAGGGGGCGG [U12A C14A] | 0.997
AACACUGCCAAUGCCCGUCCCAAGCCGGGAUAAAAGUGGAGGGGGCGG [G16C C27G] | 0.608
AACACUGCCAAUGCCGGUCCGAAGCCCGGAUAAUAGUGGAGGGGGCGG [C21G A34U] | 0.0291
AACACUUCCAAUGCCGGUCCCAAACCCGGAUAAAAGUGGAGGGGGCGG [G7U G24A] | 0.0738
AACACUGCAAAUGCCGGUCCCAAGACCGGAUAAAAGUGGAGGGGGCGG [C9A C25A] | 0.0586

Variant | self-cleavage
AACACUGCCCAUGCCGGUCCCAAGCCCGGAUAAAAGUGGAGGGGGCGU [A10C G48U] | 1.01
AACACUGCCCAUGCCGGUCCCAAGCCCGAAUAAAAGUGGAGGGGGCGG [A10C G29A] | 0.86
AGCACUGCCUAUGCCGGUCCCAAGCCCGGAUAAAAGUGGAGGGGGCGG [A2G A10U] | 0.346
AACACUGCCAAUGCCGGUCCCAAGCCCGCAUAAAAGUGGAGGGGGCGG [G29C] | 0.858
UACACUGCCAAUGCCGGUCCCAAGCCCGGAUAAAAGUGGAGGGGCCGG [A1U G45C] | 0.0573
AACACUGCCAAUGGCGUUCCCAAGCCCGGAUAAAAGUGGAGGGGGCGG [C14G G17U] | 0.101
AACACUGCCAAGGCCGGUCCCAAGCCCGGCUAAAAGUGGAGGGGGCGG [U12G A30C] | 0.969
AACACUGCCAAUGCCGGUCCCAAGCCCGGAUAAAAGAGGAGGGGGCAG [U37A G47A] | 0.457
AACACUGCCAAUGCCGGUCCCAAGCCCGGAUACAAGUCGAGGGGGCGG [A33C G38C] | 0.918
AACACUGCCCGUGCCGGUCCCAAGCCCGGAUAAAAGUGGAGGGGGCGG [A10C A11G] | 1.12
AACACUGCCAAUGCCGGUCCCAAGCCCGGAUAUAAGUGGAGGGGGCGG [A33U] | 0.998
AACACUGCCAAUGCCGGUCCCAAGCCCGGAUAGAAGUGGAGGGGGCGG [A33G] | 0.96
AACACUGCCAAUGCCGGUCCCAAGCCCCGGUAAAAGUGGAGGGGGCGG [G28C A30G] | 0.77
AACACUGCCAAUGCCGGUCGCAAGCCCGGAUAAAAGUGGAGGGGGGGG [C20G C46G] | 0.126
ACCACUGCCAGUGCCGGUCCCAAGCCCGGAUAAAAGUGGAGGGGGCGG [A2C A11G] | 0.102
AACACUGCCAAUUCCCGUCCCAAGCCCGGAUAAAAGUGGAGGGGGCGG [G13U G16C] | 0.094
AACACUGGCAAUGCCGGUCCCAAGCCCUGAUAAAAGUGGAGGGGGCGG [C8G G28U] | 0.0873
AACACUGCCAAUGCCGGUCCCAAUCCCGGAUAAAAUUGGAGGGGGCGG [G24U G36U] | 0.0805
AACACUGCCACUGCCGGUCCCAAGCCCGGAUAAAAGUGGAGGGGCCGG [A11C G45C] | 0.581
AACACUGCCAACGCCGGUCCCAAGCCCGGAUAAAAGUGGAAGGGGCGG [U12C G41A] | 0.577
AACACUGCCCAUGCCGGUCCCAAGCCCGGAUAACAGUGGAGGGGGCGG [A10C A34C] | 0.283
AACACUUCCAAUGCCGGGCCCAAGCCCGGAUAAAAGUGGAGGGGGCGG [G7U U18G] | 0.0649
AACACUGCCAAUGCCGGUCCCAAGCCCUGAUAAAAGUGGAGGGGUCGG [G28U G45U] | 0.375
AACACUGCCAAUGCGUGUCCCAAGCCCGGAUAAAAGUGGAGGGGGCGG [C15G G16U] | 0.814
AACACUGCCAAUGCCGGUCCCAAGCCCGGAUAAAAUUGGAGGCGGCGG [G36U G43C] | 0.124
AACACUGCCAAUGCCGGUCCCAAGCCAGGAUAAAAGUGGAAGGGGCGG [C27A G41A] | 0.119
AACACUGCCAAUGCCCGUCCCAAGCCCGGAUAAAAGUGGUGGGGGCGG [G16C A40U] | 0.114
